# Experimental data from US20070059727A1.
# Biological target: microtubules assembled from fluorescein-modified bovine brain tubulin (α-/β-tubulin heterodimers) (bovine)
# Assay: cell-based or functional assay
substance,measurement,value
Glutathione S-Transferase (GST)-tagged γ-Tubulin fusion protein (from UniProt P23258 1-451),average MT length after 5 min of polymerization (MTs on GST-γ-tubulin-functionalized gold pads against MTs grown in solution),1.68 micron
same,average MT length after 10 min of polymerization (MTs on GST-γ-tubulin-functionalized gold pads against MTs grown in solution),3.47 micron
